# Experimental data published in the supplement of paper PMC9170038.
# System: K4 kissing-loop RNA reporter
# Test: apparent KD of K4 kissing-loop reporter; higher = weaker reporter binding
# Settings: Eterna round: R107; input ligand: arginine 13.2 mM
# Protocol: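 RNA-MaP round R107: designed RNA switches with theophylline, tryptophan, arginine or FMN aptamers are transcribed on-chip within common flanks. They are titrated with a labelled K4 kissing-loop RNA reporter in RNA-MaP buffer (100 mM Tris pH 7.5, 80 mM KCl, 4 mM MgCl2), without ligand or with the indicated ligand. Median apparent KD per design.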
# 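Further: bound reporter read as fluorescence of individual clusters on recovered sequencing chips by microscopy, with normalized cluster intensities fitted with a binding model.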
row,Sequence,apparent KD of K4 kissing-loop reporter
1,UCCUACGAGGUAACGUGGAUAUCUCGUUGCAAGGAUAUCUGGAAACAGAGAAGGUGCAACAUUAUCGGCAGUGAUGUUGCUGACC,242 nM
2,UCGCAAAAGUCGGCCGCCACUCCGGGCCCUAUAAAUGGGCGCAGUGAUGUUGCGGCUAGGCCUCUGAGGACCGGGACUUUGAAGA [Esesbior],25 nM
3,AAAAUAAACCAGUGAUGUUGGUGUCUAGAUACCAGCGACGAAAGUCGCCCUUGGCAGCUGUGGACGUACAAAAUAAGUACGUCCU [MatMod 5 - Jieux - Same State - Theophylline A],327 nM
4,UGAUACCAGACGGCCGCCACUCCCGCAGGUCAAAGACCUGCGAAGAAGGUUUUUUAGUGAUGUUGGAGGACCGGGUCUGGUAUCU [FiskerMod 20 - Jieux - Exclusion - Tryptophan B],92.6 nM
5,AGUAGUUGGGCGGCCGCCACUGGAACAGCUUUGUCAAAGACAGAGCACUAGAGUGAUGUUCUAGCUAGGACCGGGUCCAACUACA [whbob_SS_Tryp_B_t17],206 nM
6,AUACGCGAUAGCGUAUAUAACUUUUCAGAAGGAGCGUGGAAGUACACAGGUAGGUCGCUGAAUAUAGGACUAGUGAUGUUAGUUA [JR_Nu_SSArginiA_Sub025],220 nM
7,UGUGAUGUUGUGAUGUUUAGUGUUGUUGGGCAGGAUAUUGUAGAGGCGAGAAGGGCUUGUGUGAUGUAUGAGUGAUGUUUGUAGU [cffdmullin],89.6 nM
8,AGAGAUAUAUGAGGAUAUGAGAUAGUUAAUGAGUGAGUUAUAGUGUAGUUUGGUUAGUGAUGUUAUUUAGAAGGCGUGAGUGAUG [reefmullin],76.7 nM
9,AGGGAACGCACGGAUACCAGACUCAUAGUGAUGUUGUGGGUAUAAAUUAGCGCAUACACAGUCCCUUGGCAGCCGCUGAAUGGCC [theeternabot_exclusion_KL_Theo_B_1],644 nM
10,GGAUAGGAUAGAGGAUAUGGAAAACACAAAAGUGACUUGUUGUGUUUAUCCAUAGGGAGUGAUGUUCCAGAAGGCUGUCCUAUCG [MatMod 23 - Jieux - Exclusion - FMN B],169 nM
11,GUGAUAUCGCAAGGAUAUCCAAUUUCUGCGGAUAAGUGAUGUUUGGCGCCGCCUCAGUUAUGGCAAGGAGAAGGUGCGGCCUAGC [theeternabot_sameState_KL_FMN_B_28],286 nM
12,AGGAUCCGUCGACAAAAGUCGACAUAAACCGAGGAUAUGACGAAAGUCAGAAGGUGGUCAUAAGACCAGUGAUGUUGGUGGAUCC [FmnA 14 #SwitchBubble #K4Late],282 nM
13,AGGAUAUAGUGAUGUUAUAUAAGAAGAAAACGAGGACCGGUACGGCCGCCACUCGAAGCGGCUACUAAGAGGGAAAGAAGAGGAA [ExTryptoA.A],181 nM
14,AAAGAGUCCUGAGCCGAAGAAGAAGGCGGACGAGGACCGGUACGGCCGCCACUCGAAAGGAGUGCGGCUGAGUGAUGUUUGGCCG [Tryptophan A (C-G optomized)],181 nM
15,AGUGGACGUUACCGGAGUGAUGUUUCGGAUACCAGACACGAAAGUGUCCCUUGGCAGCCGUAGUGAUGUUACGGAGUUCACUAAA [KL-XTheo-A12 #KL 2],61.5 nM
16,AAAUCGUUCAGAAGGAGCGUGAAUUAUUCUUAAUUAUAUUAUACGAGUGAUGUUCGUGUUUCACAGGUAGGUCGCUGAUCGAUAA [JR_SSArginiB_Sub005],126 nM

row,Sequence,apparent KD of K4 kissing-loop reporter
1,UGUCAUUGGUCUGAUACCAGUUAGCGCGAUAAGCGCAAAACUGGAGUGAUGUUCCCAAAUAACCCUUGGCAGCAGACCGAUGACU [MAT - Same State Theophlline B - Mod of Eli - D13],155 nM
2,UGUGAACAAAAGUAGAGUGGACCACUAUAGCGAGGACCGGUACGGCCGCCACUCGUACAUGAAUUCAGUGAUGUUGAAAAGAGCU [whbob_EX_Tryp_A_t13],413 nM
3,GGAUCUUCCAGUGAUGUUGGUUAAUAUAUCAAGGAUAUGACGAAAGUCAGAAGGUGAAAGACUGGACAAAGUCCAGUCGGAUCCA [KL-SSFMN-A19],573 nM
4,UUUGGUUUCUCGGCCGCCACUCGUUGUCUAUCGGCUUCAGGGAUAUAGUGAUGUUAUGUAUAGAAGAGGACCGGGAGAAGGUUCC [ExTryptoB.Dy],169 nM
5,UAAUAUCCGUCGGCCGCCACUCACUAGUGAUGUUAGAGGAGUGAUGUUCCACGAGUGAUGUUCGAGAGGACCGGGACGGACGAUG [7th],60 nM
6,AAGUAGAUCAAGAUCUAGUAUCUAGAUCAACGAGGACCGGUACGGCCGCCACUCGAAUAAUAGAGUGAUGUUCUAAGAUCUACAA [AK1.4 SS Tryptophan A],716 nM
7,GCGCGUCAUGUCAGCGGAGACACUGUCGAUACCAGCGCCGCAAGGCGCCCUUGGCAGCGACGCGCUGGAGUGAUGUUCCAGCGUG [#2 Exclusion - Theophylline A Attempt #15 (HarryS)],154 nM
8,AAUAAGGUCGCCGAUACCAGCGCAGGCAGAGCAAAGCUCUGCCUAGUAGUGAUGUUACUGCGCCCUUGGCAGCGGUGGCACGACC [Omei KL Theo B SS C v4],824 nM
9,AUUUAAUGUAUAGAUUAUAUACAUAAUUCAGAGGAUAUGCGAAGAAGCAGAAGGCUGGUUGCAGUGAUGUUGCUUUUAUAAUUUA [JR_SSFMNA_Sub009],152 nM
10,AGGCACGAGCAAGGAUAUCGAGUAGAGUGAUGUUCUGCCUGGGUUGGCUCGGAAGGGCCUUCCCAGCGAGAAGGUGCUCGUGCCU [#2 Same State - FMN A Attempt #16 (HarryS)],637 nM
11,ACUGAGCAUGCGGCCGCCACUUCAGAACGUCGCCCAAAGGGCGACGCCUCCAGAGUGAUGUUCUGGAGGACCGGGCAUGUUCAGA [Omei KL Tryp B Exc A v1],300 nM
12,AAUGGCGAGUGAUGUUCGCCCACCAAUGAUACCAGUGCCAUCGGACACCCUUGGCAGCAUACGGGCAGUGAUGUUGCUCUUGGAA [Exclusion Theophylline A GF 26],181 nM
13,CCUUGGAUUAGCUGUACUUUUCUACGGGAUACCAGUGCGUAACACCACCCUUGGCAGCCCGAUUACCGGCAGUGAUGUUGCCUCU [theeternabot_sameState_KL_Theo_A_41],282 nM
14,UCCUGCAAUCGACCACGAAAGUGGAUCGAUACCAGAGUCGAAAGACUCCCUUGGCAGCGAGUGAUGUUCGAGCAGGUAAAAUAAA [#SwitchBubble 23 #K4Late],461 nM
15,AAGCAGUCACUCGAAAUCAUCAAAGAUGAACGAGGACCGGUACGGCCGCCACUCGGAGUGAUGUUCCGAAGACUGCAAAAUAAAA [MatMod 2 - Jieux - Exclusion - Tryptophan A],225 nM
16,AGAAGAGUGAUGUUCUUCUAUAUCUCAGAAGGAGCGACAUAAAUGUCAGGUAGGUCGCUGAGAUGAAAUCUCACACAGAUCUUGG [Arg A SS t8],149 nM

# Same assay, conditions: Eterna round: R107; input ligand: none
row,Sequence,apparent KD of K4 kissing-loop reporter
1,UGUCAUUGGUCGGCCGCCACUUCGUGUAGAGUGAUGUUUUGUAGGACGGAUCGAAAGAUCUGUCGGAGGACCGGGACCGAUGACU [FiskerMod 17 - Jieux - Same State - Tryptophan B],408 nM
2,UGUACCGAGUCAGGAUAUGGCGUCGAAAGACGAAUGCUAGUGAUGUUAGGGAUCUGCGAAAGCAGUCCAGAAGGGACUUGGUACU [FmnBS 26 G36],653 nM
3,AGGCACGAGCAAGGAUAUCGAGUAGAGUGAUGUUCUGCCUGGGUUGGCUCGUAAGAGCCUUCUCAGCGAGAAGGUGCUCGUGCCU [#2 Same State - FMN A Attempt #20 (HarryS)],544 nM
4,GCGCGGCAGGCGGCCGCCACUCUGACGAGCCACAGUGAUGUUGUGGUCGGAGAAACGUCUUCAUAGAGGACCGGGUUUGUUGUUC [Same State Typtophan A GF 25],226 nM
5,ACGAUUUACAGAAGGAGCGUGUAUUUAACUACAAUUAUCAUAGCGAGUGAUGUUCGUUAUACACAGGUAGGUCGCUGUAUAUCGA [JR_ExcArginiB_Sub012],356 nM
6,GUAUCGCUAGGAGGAUAUUUCAAUUUGACUCUUUGAGUUAUUACGGAGUGAUGUUCCGAUUUACGGAAAGAAGGCCUAGUGAUAC [FMN B 12],202 nM
7,AAUUCUUAUCUUAGUUGAUUUCUAAUUAAACGAGGACCGGUACGGCCGCCACUCGGUUAUGAGUGAUGUUCAUGGAAUUACAUAA [JR_SSTryptoA_Sub019],515 nM
8,UGGAUAUCGUUUAGUCUGGUGAGGUCAGAUACCAGACUAGCGAUAGUCCCUUGGCAGCUGAUUAUGAUUGAGUGAUGUUCAAUCG [Theo A Ex t9a],175 nM
9,AGACGAGAUGAAGGAUAUGCGGACAAAGUGAUGUUUUGUCCGAAAGUAGGCAGUAAUAUCGAAAAUGCAGAAGGUCAAGAACAUA [theeternabot_exclusion_KL_FMN_B_36],143 nM
10,GGAUAGGAUAGAGGAUAUGGUAUAUGCAAGAAUAACUUGUCAUGUAAAUCCAUGAGGAGUGAUGUUCCAGAAGGCUGUCCUAUCG [MatMod 10 - Jieux - Exclusion - FMN B],480 nM
11,UCCUACGAGGUAACGUGGAUAUCUCGUUGCAAGGAUAUCUGGAAACAGAGAAGGUGCAACAUUAUCGGCAGUGAUGUUGCUGACC,482 nM
12,UCGCAAAAGUCGGCCGCCACUCCGGGCCCUAUAAAUGGGCGCAGUGAUGUUGCGGCUAGGCCUCUGAGGACCGGGACUUUGAAGA [Esesbior],23.9 nM
13,AAAAUAAACCAGUGAUGUUGGUGUCUAGAUACCAGCGACGAAAGUCGCCCUUGGCAGCUGUGGACGUACAAAAUAAGUACGUCCU [MatMod 5 - Jieux - Same State - Theophylline A],541 nM
14,UGAUACCAGACGGCCGCCACUCCCGCAGGUCAAAGACCUGCGAAGAAGGUUUUUUAGUGAUGUUGGAGGACCGGGUCUGGUAUCU [FiskerMod 20 - Jieux - Exclusion - Tryptophan B],257 nM
15,AGUAGUUGGGCGGCCGCCACUGGAACAGCUUUGUCAAAGACAGAGCACUAGAGUGAUGUUCUAGCUAGGACCGGGUCCAACUACA [whbob_SS_Tryp_B_t17],533 nM
16,AUACGCGAUAGCGUAUAUAACUUUUCAGAAGGAGCGUGGAAGUACACAGGUAGGUCGCUGAAUAUAGGACUAGUGAUGUUAGUUA [JR_Nu_SSArginiA_Sub025],235 nM
17,UGUGAUGUUGUGAUGUUUAGUGUUGUUGGGCAGGAUAUUGUAGAGGCGAGAAGGGCUUGUGUGAUGUAUGAGUGAUGUUUGUAGU [cffdmullin],127 nM
18,AGAGAUAUAUGAGGAUAUGAGAUAGUUAAUGAGUGAGUUAUAGUGUAGUUUGGUUAGUGAUGUUAUUUAGAAGGCGUGAGUGAUG [reefmullin],131 nM
19,AGGGAACGCACGGAUACCAGACUCAUAGUGAUGUUGUGGGUAUAAAUUAGCGCAUACACAGUCCCUUGGCAGCCGCUGAAUGGCC [theeternabot_exclusion_KL_Theo_B_1],971 nM
20,GGAUAGGAUAGAGGAUAUGGAAAACACAAAAGUGACUUGUUGUGUUUAUCCAUAGGGAGUGAUGUUCCAGAAGGCUGUCCUAUCG [MatMod 23 - Jieux - Exclusion - FMN B],169 nM
21,GUGAUAUCGCAAGGAUAUCCAAUUUCUGCGGAUAAGUGAUGUUUGGCGCCGCCUCAGUUAUGGCAAGGAGAAGGUGCGGCCUAGC [theeternabot_sameState_KL_FMN_B_28],428 nM
